According to patent publication US20240409960A1, “METHOD FOR CONTROLLING PROTEIN FUNCTION” (The University of Tokyo, priority 2021, published 2024):

How the values were obtained:
[1] = test system: DNA sequence flanked by two loxP sites (loxP-stop-loxP Fluc reporter) in HEK293 cells; test: luciferase assay of Cre-loxP DNA recombination in HEK293 cells; format: cell-based, human; settings: for TMP-dependent DNA recombination activity (induction): TMP 10 nM or 500 nM vs DMSO; for background DNA recombination activity (leakage) in the absence of TMP: luciferase reporter
Source text: For constructing a luciferase reporter for detecting Cre-loxP recombinase activity, the polyadenylation signal (poly(A)) repeated sequence (“stop”)) flanked by two loxP sites ([…]: SEQ ID No: 36) in the same orientation was amplified from Addgene plasmid (ID: 22797). Sequence encoding firefly luciferase (Fluc) was amplified from pGL4.31 vector (Promega). The loxP stop-loxP-Fluc construct was inserted into HindIII and XhoI sites in pcDNA3.1 (+) vector containing the CMV promoter.
HEK293T cells (American Type Culture Collection: ATCC) were cultured at 37° C. under 5% CO2 in Dulbecco's Modified Eagle Medium (DMEM; Thermo Fisher Scientific) supplemented with 10% fetal bovine serum (FBS; Thermo Fisher Scientific), 100 units/ml of penicillin and 100 μg/ml of streptomycin (Thermo Fisher Scientific) and 2 mM GlutaMAX (Thermo Fisher Scientific).
For luciferase assay, HEK 293 cells were plated at 25,000 cells per well on a 96-well flat white microplate (Thermo Fisher Scientific), and were then cultured for 24 hours at 37° C. in 5% CO2. The cells were transfected with cDNAs encoding destabilized Cre along with the luciferase reporter (loxP-stop-loxP Fluc), using X-tremeGENE9 reagent (Merck Millipore) at 37° C. The total amount of DNA was 50 ng per well. Twenty-four hours after the transfection, TMP or DMSO was added into the cells, and the cells were further cultured for 24 hours or 48 hours. Just before the luciferase assay, the medium was replaced with Hanks' balanced salt solution (HBSS) (Thermo Fisher Scientific) containing 0.2 mM D-luciferin potassium salt. Bioluminescence measurement was performed for 1 second per well at room temperature using a Centro XS^3 LB 960 plate-reading luminometer (Berthold Technologies).

[2] = test system: loxP-stop-loxP Fluc reporter in mice liver; test: in vivo Cre-loxP recombination, bioluminescence imaging after HTV injection into mice; settings: for DNA recombination activity in vivo in the absence of TMP: HTV injection, DMSO I.P., bioluminescence 24 hours after injection; for TMP-dependent DNA recombination activity in vivo: TMP 167 μg/g body weight I.P. 3 hours after HTV injection
Description: Experiments using mice were performed in accordance with the Guidelines for Care and Use of Laboratory Animals as stated by the University of Tokyo. In all the experiments, four week-old female Slc: ICR mice (Sankyo Labo Service Corporation, Inc.) were used. The mice were […] with cDNAs encoding destabilized Cre along with the luciferase reporter (loxP-stop-loxP Fluc) at 1:9 ratio, using TransIT-EE Hydrodynamic Delivery Solution (Mirus Bio LLC, Madison). The total amount of the DNA injected into a mouse was 10 μg per mouse. The volume of a delivery solution was set at 0.1 mL per mouse weight (g). After the hydrodynamic (HTV) injection of DNA, the mice were bred for 3 hours, and thereafter, TMP (167 μg/g body weight) or DMSO was intraperitoneally (I.P.) injected into the mice. The total volume of the TMP solution injected into a mouse was 100 μL per mouse weight (g). The intraperitoneally injected mice were bred for further 21 hours. The bioluminescence imaging of the mice was performed 24 hours after the HTV injection of DNA. Prior to the bioluminescence imaging, 100 mM D-luciferin was intraperitoneally injected into the mice. The total volume of the injected D-luciferin solution was 10 μL per mouse weight (g). Three minutes after the D-luciferin injection, the bioluminescence images of the mice were obtained using the Lumazone bioluminescence imager (Nippon Roper) equipped with the Evolve EMCCD camera (Photometrics) for 1 minutes. During the intraperitoneal D-luciferin injection and the bioluminescence imaging, the mice were anaesthetized with isoflurane (Abb Vie) to keep them motionless. The obtained data were analyzed with the SlideBook 4.2 software (Intelligent Innovations Inc.).
Next, the usefulness of SPEED-Cre in a living mouse body, namely, in vivo was examined. Using a hydrodynamic tail vain (HTV) injection method (Liu et al., Gene Ther. 6:1258-1266, 1999), mice liver was we transiently transfected with DD-Cre or SPEED-Cre (FIG. 5a). Three hours after the HTV injection, TMP (167 μg/g body weight) or DMSO was intraperitoneally (I.P.) administered into the DD-Cre- or SPEED-Cre-transfected mice (FIG. 5a). The DNA recombination activity was measured using the bioluminescence of a luciferase reporter as an indicator. […] The DNA recombination ability of DD-Cre in vivo was consistent to the ability in in vitro experiments using the human cell line.

B1: split-Cre: Cre split between Ser152 and Asp153 into N-terminal (a.a. 2-152) and C-terminal (a.a. 153-343) self-assembling fragments; SEQ ID No: 8 (protein)
chain: MVSKYPYDVPDYARSGGSGGKLVPKKKRKVGGSNLLTVHQNLPALPVDATSDEVRKNLMDMFRDRQAFSEHTWKMLLSVCRSWAAWCKLNNRKWFPAEPEDVRDYLLYLQARGLAVKTIQQHLGQLNMLHRRSGLPRPSDSNAVSLVMRRIRKENVDAGERAKQALAFERTDFDQVRSLMENSGSGSGATNFSLLKQAGDVEENPGPLEDRCQDIRNLAFLGIAYNTLLRIAEIARIRVKDISRTDGGRMLIHIGRTKTLVSTAGVEKALSLGVTKLVERWISVSGVADDPNNYLFCRVRKNGVAAPSATSQLSTRALEGIFEATHRLIYGAKDDSGQRYLAWSGHSARVGAARDMARAGVSIPEIMQAGGWTNVNIVMNYIRNLDSETGAMVRLLEDGD
modifications: MISC_FEATURE - HAtag; SIGNAL 23..30 Nuclear Localization Signal; MISC_FEATURE - N-terminal of Cre; MISC_FEATURE - P2A; MISC_FEATURE - C-terminal side of Cre; Bacteriophage P1
In the case of B1, the “recombination efficiency of the self-assembled split fragments” value ([1]; N-terminal (a.a. 2-152) and C-terminal (a.a. 153-343) fragments expressed via P2A in HEK293 cells, no TMP) is reported as “high recombination efficiency comparable to that of iCre”.

B2: SPEED-Cre: split Cre with a DD sequence on each of the N-terminal and C-terminal fragments; SEQ ID No: 10 (protein)
chain: MVSKYPYDVPDYARSGGSGGMISLIAALAVDYVIGMENAMPWNLPADLAWFKRNTLNKPVIMGRHTWESIGRPLPGRKNIILSSQPSTDDRVTWVKSVDEAIAACGDVPEIMVIGGGRVIEQFLPKAQKLYLTHIDAEVEGDTHFPDYEPDDWESVFSEFHDADAQNSHSYCFEILERRGGSGGSGGKLVPKKKRKVGGSNLLTVHQNLPALPVDATSDEVRKNLMDMFRDRQAFSEHTWKMLLSVCRSWAAWCKLNNRKWFPAEPEDVRDYLLYLQARGLAVKTIQQHLGQLNMLHRRSGLPRPSDSNAVSLVMRRIRKENVDAGERAKQALAFERTDFDQVRSLMENSGSGSGATNFSLLKQAGDVEENPGPLEDRCQDIRNLAFLGIAYNTLLRIAEIARIRVKDISRTDGGRMLIHIGRTKTLVSTAGVEKALSLGVTKLVERWISVSGVADDPNNYLFCRVRKNGVAAPSATSQLSTRALEGIFEATHRLIYGAKDDSGQRYLAWSGHSARVGAARDMARAGVSIPEIMQAGGWTNVNIVMNYIRNLDSETGAMVRLLEDGDGGSGGSGGMISLIAALAVDYVIGMENAMPWNLPADLAWFKRNTLNKPVIMGRHTWESIGRPLPGRKNIILSSQPSTDDRVTWVKSVDEAIAACGDVPEIMVIGGGRVIEQFLPKAQKLYLTHIDAEVEGDTHFPDYEPDDWESVFSEFHDADAQNSHSYCFEILERR
modifications: MISC_FEATURE - HAtag; DOMAIN 21..179 Degradation Domain; SIGNAL 190..197 Nuclear Localization Signal; MISC_FEATURE - N-terminal side of Cre; MISC_FEATURE - P2A; MISC_FEATURE - C-terminal side of Cre; DOMAIN 576..734 Degradation Domain; Bacteriophage P1
For B2, the “TMP-dependent DNA recombination activity (induction)” value ([1]; 5 ng expression plasmid, 24 or 48 hours (FIG. 4d)) was “not less than 10 fold”, the “background DNA recombination activity (leakage) in the absence of TMP” value (“background DNA recombination activity” for short) ([1]; HEK293 cells, no TMP) was “extremely low level that was comparable to the case of using the pcDNA3.1 empty vector plasmid and the reporter plasmid” and the “leakage of DNA recombination activity in the absence of TMP as a function of the amount of expression plasmid” value ([1]; HEK293 cells, plasmid amount varied, no TMP) was “maintained a low level”. For the same molecule, the “TMP-dependent DNA recombination activity (induction)” value ([1]; expression plasmid in various amounts, 24 or 48 hours (FIGS. 4f and g)) was “up to 330 fold”, the “DNA recombination activity in vivo in the absence of TMP” value [2] was “suppressed to low, comparable to a negative control group using the pcDNA3.1 empty vector plasmid” and the “TMP-dependent DNA recombination activity in vivo” value [2] was “high TMP-dependent DNA recombination activity, comparable to the recombination activity of Cre”.

B3: DD-Cre: destabilized Cre tagged with one ecDHFR-derived DD sequence; SEQ ID No: 3 (protein)
chain: MVSKYPYDVPDYARSGGSGGMISLIAALAVDYVIGMENAMPWNLPADLAWFKRNTLNKPVIMGRHTWESIGRPLPGRKNIILSSQPSTDDRVTWVKSVDEAIAACGDVPEIMVIGGGRVIEQFLPKAQKLYLTHIDAEVEGDTHFPDYEPDDWESVFSEFHDADAQNSHSYCFEILERRGGSGGSGGKLVPKKKRKVGGSNLLTVHQNLPALPVDATSDEVRKNLMDMFRDRQAFSEHTWKMLLSVCRSWAAWCKLNNRKWFPAEPEDVRDYLLYLQARGLAVKTIQQHLGQLNMLHRRSGLPRPSDSNAVSLVMRRIRKENVDAGERAKQALAFERTDFDQVRSLMENSDRCQDIRNLAFLGIAYNTLLRIAEIARIRVKDISRTDGGRMLIHIGRTKTLVSTAGVEKALSLGVTKLVERWISVSGVADDPNNYLFCRVRKNGVAAPSATSQLSTRALEGIFEATHRLIYGAKDDSGQRYLAWSGHSARVGAARDMARAGVSIPEIMQAGGWTNVNIVMNYIRNLDSETGAMVRLLEDGD
modifications: MISC_FEATURE - HAtag; DOMAIN 21..179 degradation domain; SIGNAL 190..197 Nuclear Localization Signal; Bacteriophage P1
For B3, the “TMP-dependent DNA recombination activity” value ([1]; HEK293 cells transfected with 5 ng of expression plasmid, TMP treatment) was “does not induce the DNA recombination”, the “background DNA recombination activity” value ([1]; HEK293 cells, no TMP) was “almost the same level of the recombination activity of iCre” and the “recombination activity after reduction of the transfection amount” value ([1]; transfection amount reduced by one 400th, HEK293 cells) was “remained at almost the same level as that before the reduction of the transfection amount”. For the same molecule, the “DNA recombination activity in vivo in the absence of TMP” value [2] was “high DNA recombination activity at the same level as iCre” and the “TMP-dependent DNA recombination activity in vivo” value [2] was “DNA recombination was not induced”.

B4: DD-sasCre: sasCre tagged with a single DD sequence on the N terminal side of Cre; SEQ ID No: 9 (protein)
chain: MVSKYPYDVPDYARSGGSGGMISLIAALAVDYVIGMENAMPWNLPADLAWFKRNTLNKPVIMGRHTWESIGRPLPGRKNIILSSQPSTDDRVTWVKSVDEAIAACGDVPEIMVIGGGRVIEQFLPKAQKLYLTHIDAEVEGDTHFPDYEPDDWESVFSEFHDADAQNSHSYCFEILERRGGSGGSGGKLVPKKKRKVGGSNLLTVHQNLPALPVDATSDEVRKNLMDMFRDRQAFSEHTWKMLLSVCRSWAAWCKLNNRKWFPAEPEDVRDYLLYLQARGLAVKTIQQHLGQLNMLHRRSGLPRPSDSNAVSLVMRRIRKENVDAGERAKQALAFERTDFDQVRSLMENSGSGSGATNFSLLKQAGDVEENPGPLEDRCQDIRNLAFLGIAYNTLLRIAEIARIRVKDISRTDGGRMLIHIGRTKTLVSTAGVEKALSLGVTKLVERWISVSGVADDPNNYLFCRVRKNGVAAPSATSQLSTRALEGIFEATHRLIYGAKDDSGQRYLAWSGHSARVGAARDMARAGVSIPEIMQAGGWTNVNIVMNYIRNLDSETGAMVRLLEDGD
modifications: MISC_FEATURE - HAtag; DOMAIN 21..179 Degradation Domain; SIGNAL 190..197 Nuclear Localization Signal; MISC_FEATURE - N-terminal side of Cre; MISC_FEATURE - P2A; MISC_FEATURE - C-terminal side of Cre; Bacteriophage P1
In the case of B4, the “background DNA recombination activity” value ([1]; HEK293 cells, no TMP) is reported as “significantly lower activity leakage than DD-Cre 1.4”.
